Measured values from patent US20230140797A1 (published 2023).
Where two headings read alike, the source gives them in different places.

T1: human FcγRIIa type H (131His) extracellular domain with C-terminal His tag (human, UniProt P12318 34-217)
T1 sequence (looked up): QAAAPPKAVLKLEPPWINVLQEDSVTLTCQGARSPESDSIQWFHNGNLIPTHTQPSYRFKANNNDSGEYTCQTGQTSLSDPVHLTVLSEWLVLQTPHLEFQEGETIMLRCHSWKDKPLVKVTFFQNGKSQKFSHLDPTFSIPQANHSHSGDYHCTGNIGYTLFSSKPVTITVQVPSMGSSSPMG

T2: human FcγRIIb extracellular domain with C-terminal His tag (human, UniProt P31994 43-217)
T2 sequence (looked up): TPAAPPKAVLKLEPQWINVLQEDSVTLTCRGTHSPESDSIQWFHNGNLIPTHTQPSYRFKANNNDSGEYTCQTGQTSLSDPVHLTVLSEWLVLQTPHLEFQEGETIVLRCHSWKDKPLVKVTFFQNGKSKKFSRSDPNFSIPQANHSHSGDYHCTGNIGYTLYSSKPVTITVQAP

T3: human FcγRIIb extracellular domain with C-terminal His tag (human, UniProt P31994 43-217)
T3 sequence (looked up): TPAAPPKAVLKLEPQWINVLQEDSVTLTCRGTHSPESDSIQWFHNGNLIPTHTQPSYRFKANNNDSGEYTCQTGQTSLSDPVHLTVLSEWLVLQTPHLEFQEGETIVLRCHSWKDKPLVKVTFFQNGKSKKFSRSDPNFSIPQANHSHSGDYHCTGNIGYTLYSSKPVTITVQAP


Legend:
[1] = target: T1, human FcγRIIa type H (131His) …; assay: SPR
[2] = target: T2, human FcγRIIb extracellular domain with …; assay: ratio of SPR KDs
[3] = target: human FcγRIa extracellular domain with C-terminal His tag (human, UniProt P12314 16-292); assay: SPR
human FcγRIa extracellular domain with C-terminal His tag, sequence (P12314 16-292): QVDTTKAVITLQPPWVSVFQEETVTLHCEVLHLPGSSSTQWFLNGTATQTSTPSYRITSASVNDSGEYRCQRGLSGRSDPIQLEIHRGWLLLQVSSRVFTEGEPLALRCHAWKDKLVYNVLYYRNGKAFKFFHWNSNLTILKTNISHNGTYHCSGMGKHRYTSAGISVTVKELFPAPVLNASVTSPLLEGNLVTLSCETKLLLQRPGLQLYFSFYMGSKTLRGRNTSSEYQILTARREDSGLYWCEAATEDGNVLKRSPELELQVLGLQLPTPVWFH

[4] = target: T2, human FcγRIIb extracellular domain with …; assay: ratio of SPR KDs; remark: listed apart in the source
[5] = target: T2, human FcγRIIb extracellular domain with …; assay: ratio of SPR KDs; remark: listed apart in the source
[6] = target: T3, human FcγRIIb extracellular domain with …; assay: SPR
[7] = target: T3, human FcγRIIb extracellular domain with …; assay: SPR; remark: listed apart in the source
[8] = target: T1, human FcγRIIa type H (131His) …; assay: SPR; remark: listed apart in the source
[9] = target: human FcγRIIIa type V extracellular domain with C-terminal His tag (human, UniProt P08637 17-208); assay: SPR
human FcγRIIIa type V extracellular domain with C-terminal His tag, sequence (P08637 17-208 F176V): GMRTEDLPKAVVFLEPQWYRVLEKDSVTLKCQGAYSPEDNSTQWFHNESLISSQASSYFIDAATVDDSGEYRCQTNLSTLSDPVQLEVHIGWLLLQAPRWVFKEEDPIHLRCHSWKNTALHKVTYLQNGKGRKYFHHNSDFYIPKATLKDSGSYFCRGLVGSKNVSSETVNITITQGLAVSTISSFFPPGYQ

| Binder | KD (IIaR)/KD (IIb) [2] | Kd [3] | KD (IIb) of parent polypeptide/KD (IIb) of altered polypeptide [5] | also measured |
| --- | --- | --- | --- | --- |
| IL6R-BP487/IL6R-L (antibody, human IgG1, kappa) heavy: QVQLQESGPGLVKPSETLSLTCAVSGHSISHDHAWSWVRQPPGEGLEWIGFISYSGITNYNPSLQGRVTISRDNSKNTLYLQMNSLRAEDTAVYYCARSLARTTAMDYWGEGTLVTVSSASTKGPSVFPLAPSSKSTSGGTAALGCLVKDYFPEPVTVSWNSGALTSGVHTFPAVLQSSGLYSLSSVVTVPSSSLGTQTYICNVNHKPSNTKVDKKVEPKSCDKTHTCPPCPAPDLLGDDSVFLFPPKPKDTLMISRTPEVTCVVIDVAEEDGEVKFNWYVDGVEVHNAKTKPREEQYNSTYRVVSVLTVLHQDWLNGKEYKCKVSNKALPRPIEKTISKAKGQPREPQVYTLPPSRDELTKNQVSLTCLVKGFYPSDIAVEWESNGQPENNYKTTPMVLDSDGSFFLYSKLTVDKSRWQQGNVFSCSVMHEALHNHYTQESLSLSP light: not shown | 33.3 |  |  | Kd [1]: 40 nM |
| IL6R-BP535/IL6R-L (antibody, human IgG1, kappa) heavy: QVQLQESGPGLVKPSETLSLTCAVSGHSISHDHAWSWVRQPPGEGLEWIGFISYSGITNYNPSLQGRVTISRDNSKNTLYLQMNSLRAEDTAVYYCARSLARTTAMDYWGEGTLVTVSSASTKGPSVFPLAPSSKSTSGGTAALGCLVKDYFPEPVTVSWNSGALTSGVHTFPAVLQSSGLYSLSSVVTVPSSSLGTQTYICNVNHKPSNTKVDKKVEPKSCDKTHTCPPCPAPDLLGDDSVFLFPPKPKDTLMISRTPEVTCVVIDVGEEDGEVKFNWYVDGVEVHNAKTKPREEQDNSTYRVVSVLTVLHQDWLNGKEYKCKVSNKGLPRPIEKTISKAKGQPREPQVYTLPPSRDELTKNQVSLTCLVKGFYPSDIAVEWESNGQPENNYKTTPMVLDSDGSFFLYSKLTVDKSRWQQGNVFSCSVMHEALHNHYTQESLSLSP light: not shown |  | 1.1 nM |  |  |
| IL6R-BP488/IL6R-L (antibody, human IgG1, kappa) heavy: QVQLQESGPGLVKPSETLSLTCAVSGHSISHDHAWSWVRQPPGEGLEWIGFISYSGITNYNPSLQGRVTISRDNSKNTLYLQMNSLRAEDTAVYYCARSLARTTAMDYWGEGTLVTVSSASTKGPSVFPLAPSSKSTSGGTAALGCLVKDYFPEPVTVSWNSGALTSGVHTFPAVLQSSGLYSLSSVVTVPSSSLGTQTYICNVNHKPSNTKVDKKVEPKSCDKTHTCPPCPAPDLLGDDSVFLFPPKPKDTLMISRTPEVTCVVIDVAEEDGEVKFNWYVDGVEVHNAKTKPREEQDNSTYRVVSVLTVLHQDWLNGKEYKCKVSNKALPRPIEKTISKAKGQPREPQVYTLPPSRDELTKNQVSLTCLVKGFYPSDIAVEWESNGQPENNYKTTPPVLDSDGSFFLYSKLTVDKSRWQQGNVFSCSVMHEALHNHYTQESLSLSP light: not shown |  |  |  | Kd [1]: 1800 nM; KD (IIaH)/KD (IIb) [4]: 865 |
| IL6R-BP491/IL6R-L (antibody, human IgG1, kappa) heavy: QVQLQESGPGLVKPSETLSLTCAVSGHSISHDHAWSWVRQPPGEGLEWIGFISYSGITNYNPSLQGRVTISRDNSKNTLYLQMNSLRAEDTAVYYCARSLARTTAMDYWGEGTLVTVSSASTKGPSVFPLAPSSKSTSGGTAALGCLVKDYFPEPVTVSWNSGALTSGVHTFPAVLQSSGLYSLSSVVTVPSSSLGTQTYICNVNHKPSNTKVDKKVEPKSCDKTHTCPPCPAPELLGDDSVFLFPPKPKDTLMISRTPEVTCVVIDVAEEDGEVKFNWYVDGVEVHNAKTKPREEQDNSTYRVVSVLTVLHQDWLNGKEYKCKVSNKALPRPIEKTISKAKGQPREPQVYTLPPSRDELTKNQVSLTCLVKGFYPSDIAVEWESNGQPENNYKTTPPVLDSDGSFFLYSKLTVDKSRWQQGNVFSCSVMHEALHNHYTQESLSLSP light: not shown | 38.3 |  | 1020 |  |
| BP549 (antibody, human IgG1, kappa) heavy: QVQLQESGPGLVKPSETLSLTCAVSGHSISHDHAWSWVRQPPGEGLEWIGFISYSGITNYNPSLQGRVTISRDNSKNTLYLQMNSLRAEDTAVYYCARSLARTTAMDYWGEGTLVTVSSASTKGPSVFPLAPSSKSTSGGTAALGCLVKDYFPEPVTVSWNSGALTSGVHTFPAVLQSSGLYSLSSVVTVPSSSLGTQTYICNVNHKPSNTKVDKKVEPKSCDKTHTCPPCPAPELLGDDSVFLFPPKPKDTLMISRTPEVTCVVVDVGEEDGEVKFNWYVDGVEVHNAKTKPREEQYNSTYRVVSVLTVLHQDWLNGKEYKCKVSNKALPRPIEKTISKAKGQPREPQVYTLPPSRDELTKNQVSLTCLVKGFYPSDIAVEWESNGQPENNYKTTPPVLDSDGSFFLYSKLTVDKSRWQQGNVFSCSVMHEALHNHYTQESLSLSP light: not shown |  | 1800 nM |  | KD (IIaH)/KD (IIb) [6]: 696; KD (IIaR)/KD (IIb) [7]: 35.9 |
| IL6R-BP492/IL6R-L (antibody, human IgG1, kappa) heavy: QVQLQESGPGLVKPSETLSLTCAVSGHSISHDHAWSWVRQPPGEGLEWIGFISYSGITNYNPSLQGRVTISRDNSKNTLYLQMNSLRAEDTAVYYCARSLARTTAMDYWGEGTLVTVSSASTKGPSVFPLAPSSKSTSGGTAALGCLVKDYFPEPVTVSWNSGALTSGVHTFPAVLQSSGLYSLSSVVTVPSSSLGTQTYICNVNHKPSNTKVDKKVEPKSCDKTHTCPPCPAPELLGGDSVFLFPPKPKDTLMISRTPEVTCVVIDVAEEDGEVKFNWYVDGVEVHNAKTKPREEQYNSTYRVVSVLTVLHQDWLNGKEYKCKVSNKALPAPIEKTISKAKGQPREPQVYTLPPSRDELTKNQVSLTCLVKGFYPSDIAVEWESNGQPENNYKTTPPVLDSDGSFFLYSKLTVDKSRWQQGNVFSCSVMHEALHNHYTQESLSLSP light: not shown | 30.3 |  |  | KD (IIaH)/KD (IIb) [4]: 670; Kd [8]: 15 µM; Kd [9]: 30 µM |
| IL6R-BP498/IL6R-L (antibody, human IgG1, kappa) heavy: QVQLQESGPGLVKPSETLSLTCAVSGHSISHDHAWSWVRQPPGEGLEWIGFISYSGITNYNPSLQGRVTISRDNSKNTLYLQMNSLRAEDTAVYYCARSLARTTAMDYWGEGTLVTVSSASTKGPSVFPLAPSSKSTSGGTAALGCLVKDYFPEPVTVSWNSGALTSGVHTFPAVLQSSGLYSLSSVVTVPSSSLGTQTYICNVNHKPSNTKVDKKVEPKSCDKTHTCPPCPAPDLLGDDSVFLFPPKPKDTLMISRTPEVTCVVIDVAEEDGEVKFNWYVDGVEVHNAKTKPREEQYNSTYRVVSVLTVLHQDWLNGKEYKCKVSNKALPRPIEKTISKAKGQPREPQVYTLPPSRDELTKNQVSLTCLVKGFYPSDIAVEWESNGQPENNYKTTPLVLDSDGSFFLYSKLTVDKSRWQQGNVFSCSVMHEALHNHYTQESLSLSP light: not shown | 30.3 |  | 1870 |  |
| IL6R-BP496/IL6R-L (antibody, human IgG1, kappa) heavy: QVQLQESGPGLVKPSETLSLTCAVSGHSISHDHAWSWVRQPPGEGLEWIGFISYSGITNYNPSLQGRVTISRDNSKNTLYLQMNSLRAEDTAVYYCARSLARTTAMDYWGEGTLVTVSSASTKGPSVFPLAPSSKSTSGGTAALGCLVKDYFPEPVTVSWNSGALTSGVHTFPAVLQSSGLYSLSSVVTVPSSSLGTQTYICNVNHKPSNTKVDKKVEPKSCDKTHTCPPCPAPDLLGDDSVFLFPPKPKDTLMISRTPEVTCVVIDVAEEDGEVKFNWYVDGVEVHNAKTKPREEQDNSTYRVVSVLTVLHQDWLNGKEYKCKVSNKALPAPIEKTISKAKGQPREPQVYTLPPSRDELTKNQVSLTCLVKGFYPSDIAVEWESNGQPENNYKTTPPVLDSDGSFFLYSKLTVDKSRWQQGNVFSCSVMHEALHNHYTQESLSLSP light: not shown |  |  | 166 |  |
| IL6R-BP556/IL6R-L (antibody, human IgG1, kappa) heavy: QVQLQESGPGLVKPSETLSLTCAVSGHSISHDHAWSWVRQPPGEGLEWIGFISYSGITNYNPSLQGRVTISRDNSKNTLYLQMNSLRAEDTAVYYCARSLARTTAMDYWGEGTLVTVSSASTKGPSVFPLAPSSKSTSGGTAALGCLVKDYFPEPVTVSWNSGALTSGVHTFPAVLQSSGLYSLSSVVTVPSSSLGTQTYICNVNHKPSNTKVDKKVEPKSCDKTHTCPPCPAPELLGDDSVFLFPPKPKDTLMISRTPEVTCVVIDVGEEDGEVKFNWYVDGVEVHNAKTKPREEQDNSTYRVVSVLTVLHQDWLNGKEYKCKVSNKALPRPIEKTISKAKGQPREPQVYTLPPSRDELTKNQVSLTCLVKGFYPSDIAVEWESNGQPENNYKTTPPVLDSDGSFFLYSKLTVDKSRWQQGNVFSCSVMHEALHNHYTQESLSLSP light: not shown |  | 49 nM |  | KD (IIaH)/KD (IIb) [6]: 692; KD (IIaR)/KD (IIb) [7]: 35.4 |
